PMC13489962, “Small-molecule modulation of β-arrestins” (Nature, 2026)

Assays:
[1] = tested on: Gi-mediated inhibition of adenylyl cyclase (D2R, M2R); assay: GloSensor cAMP Gi activity assay at D2R or M2R; format: cell-based; conditions: modulators 50 μM, 15 min; PTX 100 ng/mL overnight; forskolin 2 μM
Procedure: Gi-mediated inhibition of adenylyl cyclase was assessed using the GloSensor cAMP bioluminescence biosensor (Promega). HEK293 cells were transiently transfected with D2R or M2R together with the GloSensor cAMP reporter construct, using FuGENE 6 per the manufacturer’s protocol. Cells were seeded into poly-D-lysine-coated white clear-bottom 96-well plates at 60,000 cells per well and cultured for 24 h. GloSensor reagent was added per the manufacturer’s instructions and cells were equilibrated for 1 h at room temperature. Where indicated, pertussis toxin (PTX; 100 ng ml^−1) was applied overnight as a positive control for Gi blockade. Compounds (Cmpd-5, Cmpd-46 or Cmpd-64; 50 μM) or vehicle (DMSO) in HBSS supplemented with 20 mM HEPES (pH 7.4) and 0.05% BSA were applied for 15 min at room temperature. Cells were stimulated with forskolin (2 μM, 5 min), followed by concentration-response stimulation with quinpirole (D2R) or acetylcholine (M2R). Luminescence was recorded every 5 min over 30 min using a CLARIOstar microplate reader (BMG Labtech). Forskolin-stimulated cAMP, quantified at 10 min after agonist addition, was normalized to the maximal forskolin response per condition. Gi activity was derived from the inhibitory plateau and expressed as a percentage of the DMSO plus agonist control.

[2] = biological target: phosphorylated β2V2R (pβ2V2R): N-terminal Flag-tagged T4 lysozyme fusion-β2V2R (β2AR residues 1–341 fused to V2R residues 328–372) (UniProt P07550)
[3] = biological target: β2V2R fused to the ProLink tag (inactive portion of β-galactosidase), in U2OS PathHunter cells; assay: split reporter (BiFC, NanoBiT); PathHunter β-galactosidase enzyme fragment complementation in U2OS cells co-expressing βARR2 (enzyme acceptor) and β2V2R (ProLink); modulators or vehicle 30 min, then isoproterenol 60 min at 37 °C

Chain of βARR2 fused to the enzyme acceptor (EA) portion of β-galactosidase, in U2OS PathHunter cells (P32121 whole entry, the tested form may be a part): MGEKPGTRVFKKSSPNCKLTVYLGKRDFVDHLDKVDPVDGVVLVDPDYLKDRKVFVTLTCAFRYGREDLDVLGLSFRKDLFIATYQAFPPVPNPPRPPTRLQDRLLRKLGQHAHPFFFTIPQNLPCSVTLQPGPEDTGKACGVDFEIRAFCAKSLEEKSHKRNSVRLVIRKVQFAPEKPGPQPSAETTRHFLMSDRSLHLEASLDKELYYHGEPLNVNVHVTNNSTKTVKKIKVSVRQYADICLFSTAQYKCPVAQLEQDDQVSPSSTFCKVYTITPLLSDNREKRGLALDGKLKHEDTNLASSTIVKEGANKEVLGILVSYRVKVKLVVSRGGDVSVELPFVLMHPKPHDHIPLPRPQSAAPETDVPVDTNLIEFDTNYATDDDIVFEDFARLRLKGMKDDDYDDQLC
Chain of β-arrestin2 (βARR2), rat, C terminus truncated at amino acid 394 (P29067 1-394): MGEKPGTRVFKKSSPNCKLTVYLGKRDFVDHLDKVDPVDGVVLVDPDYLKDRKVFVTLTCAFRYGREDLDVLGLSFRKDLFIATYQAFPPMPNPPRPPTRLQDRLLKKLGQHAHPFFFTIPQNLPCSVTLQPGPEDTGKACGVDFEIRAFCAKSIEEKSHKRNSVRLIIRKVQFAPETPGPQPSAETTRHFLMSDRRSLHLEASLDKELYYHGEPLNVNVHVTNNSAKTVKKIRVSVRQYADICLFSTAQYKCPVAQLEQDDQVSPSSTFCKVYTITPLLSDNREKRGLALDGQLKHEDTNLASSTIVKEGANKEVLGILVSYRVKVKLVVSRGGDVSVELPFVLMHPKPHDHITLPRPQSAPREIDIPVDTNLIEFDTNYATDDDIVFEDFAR

In the case of pertussis toxin, the “effect on agonist-induced, Gi-mediated cAMP reduction at D2R or M2R” value [1] is reported as “abolished this response entirely”.

With “β-arrestin2 (βARR2), rat, C terminus truncated at amino acid 394 (from UniProt P29067 1-394) (domain or fragment)” the reduction of β-arrestin-mediated high-affinity [^3H]-Fen binding to pβ2V2R by Cmpd-5, Cmpd-46 and Cmpd-64, each (100 μM) [2] was 40%.

With “βARR2 fused to the enzyme acceptor (EA) portion of β-galactosidase, in U2OS PathHunter cells (from UniProt P32121 1-409) (natural protein)” the reduction of Emax of Iso-induced recruitment with 50 μM Cmpd-46 [3] was 77.3% and the reduction of Emax of Iso-induced recruitment with 50 μM Cmpd-64 [3] was 74.4%.
